Laboratory results reported in publication PMC8196545 (Cell reports, 2021).
Substitutions are numbered along the chain they refer to.

B1: c5266 (antibody, V domains shown)
VH: QVRLQESGPGLVKPSETLSLTCSVSGASVTAYSWSWVRLSAERGLEWIGRILPTIGSNRSNPSLHMRVGMSADTSKNLLSLRLTSVTAADTATYFCARDLVRDYDSWGGDYSTFHGIDVWGQGITVTVSL
VL: NSLLTQPPSVSESPGKTVNISCTRTSGGITWDFVQWYQQRPGRAPAIVIYANDRRPSGVPDRFAGSIDSSSNSAALIISGLITEDEADYYCQSFHPRGHVVFGGGTKLTVL
B2: c10840 (antibody, V domains shown)
V domain 1: EVRLDQSGAEMRKPGTSVRLSCTVSGHTTSDFFIHWVKQAPQRGPQWMGLINVEDENVIYAEVFQGRISIVADTSKTTVFLDLSHLTFEDTALYFCTTHTLEKETGDYVAAFDSWGQGTFLSVSS
V domain 2: QSVLTQPPSVSAVPGQKVIISCSGRTSNIGTNFVSWYQQFPGAAPKLLIYDTFHRPSGISDRFSASKSDTSATLAITALQPGDEAEYYCGAWDSGLNPAVFVFGSGTRVFVL
B3: c5229 (antibody, V domains shown)
VH: QMQLQESGPRLVKPSETLTVTCSVSGGSMSHFHWSWIRQSAGKGLEWIGSVYGNSGSVRSNPSLHTRVAFSLGRGQISLNLKWATAADTAVYYCARELARDFDYNFGHGGSSFGIEVWGRGTLVTVSS
VL: NFILTQPHSVSGSPGKTVIISCTRSSGNIGDNSVQWYQQRPGTPPRTVISEKNKRPSGVPDRFSASIDTSSNSASLTISGLTTEDEADYYCQSCDSGNRLIFGGGTTLTVL
B4: c27003 (antibody, V domains shown)
VH: QFQLVQSGAEVRSPGSSVTVSCKASGSTFHTYVLSWVRQAPGQGLEWMGGIIPIFATPKYAQKFQGRVTFTADEGTSTAYMDLRSLRPEDTAVYYCARSATGGTALVDYGDYEGDTFYHNHMDVWGAGTTVTVSS
VL: QSVLTQPPSASATPGQRVTISCSGRTSNVGSYAVSWYQQLPGTAPKLVIYSDDRRPSGVPDRFSGSKSGTSASLAISGLQSEDEADFYCAAWDDSLKTPVFGGGTKLTVL
B5: c26986 (antibody, V domains shown)
VH: QVHLVQSGAEVKKPGSSVKVSCKASGGSFNTNFITWVRQAPGQGLEWMGRIMPMFGTRNLAQRFQGRVTLSADTSSNSVYMELSSLTFGDTAVYFCAREAPAGGLDIWGQGTLVTVSS
VL: QIVLTQSPGTLSLSPGERATLSCRASQSLSSNYLAWYQQKPGQAPRLLIYGASSRATGIPDRFSGSGSGTDFTLTISRLEPEDFAVYYCQQYSTLFSFGPGTRVDIK
B6: c5300 (antibody, V domains shown)
VH: QMQLQESGPGLVKPSETLTVTCYVSGGSISRYHWAWIRQSAGKPLEWIGSVYGNSGSVRSSPSLHTRVALVIGSTYFSLKLKSATAADTAVYYCARELARDFNYDFGHGGSSFGIDVWGRGIMVTVSS
VL: NFILTQPHSVSGSPGKTVIISCTRSSGNIGDNSVQWYQHRPGTSPTTVISEKNRRPSGIPGRFSASIDTSSNSASLTISDLRSEDEAVYYCQSCDGGNRLIFGGGTTLTVL
B7: c22681 (antibody, V domains shown)
VH: QIRLVESGGALVKPGGSLRLSCTASGFPFGHYYLSWVRQGPGRGLEWVAHISARSTTIVYADSVRGRFTISRDNDKRSLYLEMNDLRVDDTAMYYCARDSFKWTWEYFDAWGQGTRVSVSS
VL: QSVLTQPPSVSGAPGQTVAISCSGSTSNIGHNPVSWYRNVPGTAPRIIIFSDSQRPSGIPGRFSGSKSGTSASLVITDLQLEDEGDYYCAAWGGSLRGALFGGGTKVTVL
B8: c24118 (antibody, V domains shown)
VH: EVRLVESGGSLVQPGGSLRLSCSASGFSFSKSAMSWVRQAPGKELEWVAAISGSGNSHHISDAVRGRFSISRDNLGDSVFLQMYNLRVDDTAKYFCAKSEGGRSGWYYWATEYFQHWGQGAVVTVAS
VL: SSELTQPPSVSVSPGQTARISCSGHALPQRYATWYRQKPGQAPILIIFGNNERPSGIPARFFVSASGKTAILTITGVQAEDEGDYICQSSDGSHTSLVFGGGTKLTVL
B9: c24103 (antibody, V domains shown)
VH: B8 VH with V5A, E6Q, S10G, E46Q, H58Q, F68L, G76D, Q82H, Y84N, D89E
VL: B8 VL with I47V, F62S, I71M
B10: c27236 (antibody, V domains shown)
VH: QVQLVQSGAEVKTPGSSVKVACKTSGGPFSSYAISWIRQAPGEGLEWMGGVTPLFGTARYTQKFQGRLTITTDESTSTTYMSLSGLKSEDTAVYYCASLAYIGSGPKWGQGALVTVSS
VL: DIQMTQSPSAMSASVGERVTITCRASQGISSDLAWFQQKPGKVPERLIYAASNLQSGVPSRFSGSGSGTQFTLTISGLQAEDSATYYCLQHDSYPWTFGQGTKVEIK
B11: c10895 (antibody, V domains shown)
VH: QEQGIESVRAAVESGASLIISCPTSGFDFARYTMHWVRQAPGKGLEWVAVTSSQGEKKYYSEAVKGRFVITRNNFKRTLYLEMSSLKPEDAGVYYCARSQGYCGTYACYGYYYYMDVWVKGPTVIVSS
VL: QSVLTQPPSVSAAPGEKVAISCSGNTTNIEKNYVAWYQHVPETAPKLLIFENHKRPFGIPDRFSGSKSATSATLGISDLQTADEADYYCQTWDTKLHIWVFGGGTKLTVL
B12: c29260 (antibody, V domains shown)
VH: QVRLQESGPGLVRPSETLSLTCLVSGDSITSNYWSWIRQPPGKTLEWIGFMYNSGDANYNPSLQSRVSISADTANNQFALRLTSVTAADTAVYYCARHPSRGSNYDSVTGDTYYYYYGIDVWGPGKAVAVSS
VL: DIQMTQSTPSLSASLGDKITISCQASRDIDTSLNWYQQKPGKSPKLLVVAASTLETGVPSRFSASGSGTHFTLTINDLQRDDVATYFCQQYAALPLTFGGGTRVDLR
B13: c24356 (antibody, V domains shown)
VH: QVQVVQSGAEVKQPGASVSVSCKVLGYTLSELSMHWVRQSPAKGLEWMAGFDPDANKEIYAQEFQGRVTLTHHFDTDTYFLELTSLRSDDTAVYYCATGERLAGNFLDWLHNFDYWGQGTLVTVSA
VL: EIVLTQSPATLSLSPGERATLSCRASQSIGNYLAWYQQRPGQAPRLLIHSTSNRATGIPVRFTGSGSGTDFTLTISSLEAEDFAVYYCQHRVNWPPGYTFGQGTKLDIK
B14: c31461 (antibody, V domains shown)
VH: QLQLQESGPGLVKPSETLSLTCSASGVSIGGGSSFLGWIRQPPGMGLEWIVTHYSAAKIYYNPSLQSRVITSLDTSKTQFSLKLTSMTATDTAIYYCARGNWQLQAFDSWGQGILVTVSS
VL: DIQMTQSPSTLSASVGDRVTITCRASQDIRSWLAWYQQKPGEAPKLLIYTASRLHSGVPSRFSGSGSGTEFTLTISSLQPDDFATYYCQQHNSYSGTFGQGTKVEIK
B15: c31993 (antibody, V domains shown)
VH: EVQLVQSGAEVKKPGESLKISCKCSGYTFSDHWIGWVRQRPEKGLEWMGIIFPDDSETRYSPSFEGQVTFSVDTASSTAYLLWNSLKPSDTATYYCARQESDEVRGARYDIWGQGTVVAVSS
VL: QSVLTQPPSVSGTPGQRVTISCSGSTSNVENNYVFWYQQLPGKAPELLIDGSNQRPSGVPDRFSGSKSGISASLAISGLRSEDEAYYYCAAWDESFVYLFGGGTKLTVL
B16: c11475 (antibody, V domains shown)
VH: EARLVESGGGRVQPGGSLRLSCEASGFRFSSYTFNWVRQSPGKGLEWLAKISASPFGRSQVNYAHSVEGRFIISRDNDGNSLRLQMNDLRGGDSGVYYCARAPWQERNLDYNYAMDVWGQGTTVIVSS
VL: ELVLTQSPGTLSLSPGERATVSCRASQSLRRDSLAWYQQKPGHSPRLLIFAASNRVPGIPYRFSGTGSGTQFTLTIEKMEPEDFAVYYCQSYGSSPLYTFGQGTKLDIN
B17: c21079 (antibody, V domains shown)
VH: EVQLVQSGGGEARPGDSLRISCAVSGFQFNQYAMSWVRQRPGKGLEWVSSADWTGNSVHYAGSLGDRFSVSRALYGHSLELQMNSLRPEDTAVYYCARQDFYASESRAFSEIHGNFFDLWGQGTRVTVSP
VL: QSALTQPPSASGSPGQSVIISCTGASSDISGHEYVSWYQQHAAKVPKLIIYEVTKRPSGVPDRFIGSRSGNTASLTISGLQADDEADYYCASYRHNDRSYVFGTGTTVAVL
B18: c5272 (antibody, V domains shown)
VH: EVRLQESGPELVKPSGTLSLTCTIYGESIFPYFYSWIRQTAGGGLQWIGRLYSSTGSSKSNPSIHLRVALSVDRDRNQVGLRMTSMSLADTGVYYCVRDVMRGYDSFDGSSGIYGGVDIWGRGTTVTVSS
VL: QFLLTQPHSVSESPGKTITISCTRSSGTFASKSVLWFSQRPGSRPTNVIFETNRRAAGVPDRFSGSVDSSSSSATLTISGLRTEDEGDYYCQSYDGGNHVVFGGGTKVTVL
B19: c5373 (antibody, V domains shown)
VH: QVRLQESAPRVVKPSESLSLTCTVSGGSIFPFFYSWIRQAPGGGLQWIGRLYSNTGSSKSNPSLHLRVALSVDRSRNQVGLKMTSMTAADTGVYYCVRDIMREFDDFNGAGGVYGGVDIWGRGTAVTVSS
VL: QFVLTQPPSVSESPGKTISISCTRSSGTFARNSVHWYLQRPGSVPKTVIYDGNRRPSGIPGRFSASIDVSSGSASLTISGLTTEDEAEYYCQSFDGGNHVVFGGGTKVTVL
B20: c5337 (antibody, V domains shown)
VH: B19 VH with V11L, S17T, E103D
VL: B19 VL with T83P, F94Y
B21: c5331 (antibody, V domains shown)
VH: HVHLQESGPGLVKPSETLSVTCQVSGSPLSRYFWSWIRQPAGGGLEWIGRHYPSSGSNTASAALHTRITMSMDFRNNRLSLTLRSVTAADTAVYYCTRDVMRDFNDVNGSGGTFRGVEFWGRGTTVTVSS
VL: SFILTQPHAVSESPGKTVTISCTRSSGSIDTAYVHWYQQRPGRPPTTLIYDANQRPSGVPDRFSASVDSSSSSASLTISGLEAEDEAIYYCQSSDSGHRVVFGGGTELTVL

What follows are binders tested against HIV-1 NL4-3 Env on infected cells (HIV-1 group M subtype B, NL4-3 (pNL4-3 …, strain)).
B1: binds.
B2: binds.
B3: binds.
B4: binds.
B5: binds.
B6: binds.
B7: binds.
B8: binds.
B9: binds.
B10: binds.
B11: binds.
B12: binds.
B13: binds.
B14: binds.
B15: binds.
B16: binds.
B17: binds.
B18: binds.
B19: binds.
B20: binds.
B21: binds.
